Where a chain is given by its changes, count along the chain named.
B1: Clone 89-10 (antibody, V domains shown)
V domain 1: QEQLVESRGGLVKPGGSLTLTCKASGFSFSTGYYACWVRQAPGKGLELSACVDTGSGDTFYASWARGRFTISKTSSSTVTLQMTSLTVADTATYFCARTALVMTDFYFNLWGPGTLTTVSS
V domain 2: ALVMTQTPASVEAAVGGTVTINCQASQWISNELSWYQQKPGQPPKLLIYLASTLASGVPSRFKGSGSGTEFTLTISDLECADAATYYCQQGYNIGHLDNAFGGGTEVVVK
B2: Clone 77-9 (antibody, V domains shown)
VH: QSLEESGGALVKPGASLALTCTASGFSFNLRHYMCWVRQAPGKGLEWIGCVHGGSSGGTYYASWTKGRFTISKTSSTTVTLQMTSLTAADTATYFCAREDDIMMAGEFSLWGPGTLVTVSS
VL: DIVMTQTPSSVEASVGGTVTIKCQASEDIESYLVWYQQKPGQPPKLLIYQASNLASGVPSRFYGSGSGTQFTLTISDLECADASTYYCQSYVEGGVDVVFGGGTEVVVK
B3: Clone 83-3 (antibody, V domains shown)
VH: B2 VH with A9D, A18T, G57S, T65A, A97T, S109G
VL: B2 VL with E12S, A13E, S14P, Y63S, Q70E, F71Y, S84A, V92I
B4: Clone 18-4 (antibody, V domains shown)
VH: QERLVESGGGLVQPEGSLTLTCTASGLTLSNYWLCWVRQAPGKGLEWIACIYTGNYGSAYYANWVKGRFTISKASSTTVTLQMTSLTAADTATYFCARDPYTLTNVDVLWGPGTLVTVSS
VL: ALVMTQTPSPVSAAVGGTVTINCQASQSIGSDLAWYQQRPGQPPKLLIYWASTLASGVPSRFSGSGSGTQFTLTISDLECDDAATYYCTGYISYNDDNAAFGGGTEVVVK
B5: Clone 9-1 (antibody, V domains shown)
VH: QQQLEESGGGLVKPGGTLTLTCTASGFSFSSGQWMCWVRQAPGKGLELIACIYTSAGGSTHYASWATGRFTISKTSSTTVTLQMTSLTAADTATYFCARDPYLLSAGPDNNLWGPGTLVAVSS
VL: ALVMTQTPSPVSAAVGGTVTINCQASQSIGSDFTWWQQKPGQPPKLLIYWASTLASGVSSRFKGSGSGTQFTLTISDLECDDAATYYCAGYVSYSDDGNAFGGGTEVVVK
B6: Clone 9-9 (antibody, V domains shown)
VH: B5 VH with W34R
VL: B5 VL
B7: Clone 80-7 (antibody, V domains shown)
VH: QEQLEESGGDLVKPEGSLTLTCTASGFSFSSAYWICWVRQVPGKGLEWIACIYTGSGGRSHYASWAKGRFTISKTSSTTVTLQMTSLTAADTATYFCARDPYILSAGPDNVLWGPGTLVTVSS
VL: B5 VL with F33L, T34G, W36F, S59P, K63E, V92E, Y94L, D96N
B8: Clone 154-7 (antibody, V domains shown)
VH: QSLEESGGDLVKPEGSLTLTCTASGFSFSSSYWICWVRQAPGKGLEWIACIYTANSGRTVYASWAKGRFTISKTSSTTVTLQLPSLTAADTATYFCARDIYVLTTTDNLWGPGTLVTVSS
VL: ALVMTQAPSPVSAAVGGTVTISCQASQPIGSDLVWYQQKPGQPPKLLIYYASDLASGVPSRFKGSGSGTRFTLTISGVECDDAATYYCAGYKNYDHDDCGFGGGTEVVVK
B9: Clone 137-2 (antibody, V domains shown)
VH: QEQLVESGGGLVQPEGSLTLTCTASGFSFSLSNWICWVRQAPGKGLEWVACIYVSVSGNTRYASWAKGRFTISETSSTTVTLQMTGLTAADTATYFCARDPFSLVSVDRSLWGPGTLVTVSS
VL: ALVMTQTPSPVSAAVGGTVTINCQASQSIGSDLSWFQQKPGQPPKLLMYWASSLASGVPSRFKGSGSGTQFTLTISDLECDDAATYYCAGYVNYNNDDAAFGGGTEVVVK
B10: Clone 63-1 (antibody, V domains shown)
VH: B7 VH with E15G, G16A, A32G, V41A, G55R, R59S, S60T, I72T, T92M, I103V
VL: ALVMTQTPSPVSAAVGGTVTINCQASESIGSDLGWYQQKPGQPPKFLIYWASTLVSGVPSRFEGSGSGTQFTLTISDLECDDAATYYCAGYESLSNDGNAFGGGTEVVVK

biological target: BCMA-AM1; assay: flow cytometry; supernatant on CAR-transduced Jurkat cells (BCMA-AM1), FITC goat anti-rabbit F(ab')2 detection

FITC+ (gate frequency) | Binder
82.7 | B1
82.4 | B2
83.4 | B3

biological target: BCMA-AM2; assay: flow cytometry; supernatant on CAR-transduced Jurkat cells (BCMA-AM2), FITC goat anti-rabbit F(ab')2 detection

FITC+ (gate frequency) | Binder
0.042 | B1
91.6 | B2
90.2 | B3

biological target: anti-BCMA CAR; assay: flow cytometry; clonal supernatant on anti-BCMA CAR T cells, FITC goat anti-rabbit F(ab')2 detection

CAR+ (gate frequency) | Binder
41.7 | B4
60.9 | B5
51.8 | B6
31.5 | B7
47.1 | B8
42.4 | B9
58.2 | B10

biological target: anti-BCMA CAR; assay: flow cytometry; supernatant on CAR-transduced Jurkat cells (panel BCMA WT), FITC goat anti-rabbit F(ab')2 detection

FITC+ (gate frequency) | Binder
75.2 | B5

biological target: BCMA-AM2; assay: flow cytometry; supernatant on CAR-transduced Jurkat cells (panel BCMA-AM2), FITC goat anti-rabbit F(ab')2 detection

FITC+ (gate frequency) | Binder
95.3 | B5

biological target: CAR-3; assay: flow cytometry; clonal supernatant on control CAR-3 T cells, FITC goat anti-rabbit F(ab')2 detection

CAR+ (gate frequency) | Binder
1.81 | B4
0.11 | B5
0.13 | B6
0.067 | B7
0.15 | B8
0.093 | B9
0.14 | B10

biological target: CAR-2; assay: flow cytometry; clonal supernatant on control CAR-2 T cells, FITC goat anti-rabbit F(ab')2 detection

CAR+ (gate frequency) | Binder
0.09 | B4
0.18 | B5
0.067 | B6
0.22 | B7
0.067 | B8
0.11 | B9
0.1 | B10

biological target: BCMA-AM1; assay: flow cytometry; supernatant on CAR-transduced Jurkat cells (panel BCMA-AM1), FITC goat anti-rabbit F(ab')2 detection

FITC+ (gate frequency) | Binder
0.14 | B5

Reference: patent US20200377609A1
